Key:
RSV F antibody (11A9) = test: Binding of epitope II of RSV F antigen mutants by flow cytometry; conditions: binding rate, 293T cells 16 h after mRNA-LNP transfection
Excerpt: (§1) To investigate whether the RSV F antigen mutants have pre-fusion epitopes, an RSV pre-F antibody (3C12) (specifically binding to the RSV pre-F epitope […]) and an RSV F antibody (11A9) (binding to pre-F and post-F epitopes II) were detected by flow cytometry in this example, and RSV F protein mutants in the pre-F conformation were expected to bind to the antibodies tested.
(§2) • 293T cells (purchased from ATCC cell bank); RSV pre-F antibody (3C12), epitope […] (Novoprotein, Cat. No.: DA101); RSV F antibody (11A9), epitope II (Novoprotein, Cat. No.: DA091); • experimental groups: mRNA vaccines corresponding to the expressed antigens in Example 3;
(§3) • (1) Cell transfection: 293T cells were seeded at 1.3×10^5 cells/well in a 24-well plate. The next day, mRNA-LNP samples (containing 300 ng of mRNA) were added directly to the cells, and the mixture was uniformly mixed. • (2) Cell collection: The cells were taken out of the incubator after 16 h of transfection, the medium was pipetted off, 500 μL of 0.1% BSA solution was pipetted to wash the medium remaining in the well plate, taking care not to resuspend the cells, and the 0.1% BSA solution was pipetted off. 500 μL of 0.1% BSA solution was added to each well, and the cells were pipetted and transferred to a 1.5 mL centrifuge tube. • (3) Centrifugation: The cells were harvested by centrifugation at 400 g for 5 min at 4° C. in the dark, and the supernatant was discarded. • (4) Straining: 50.6 μL of RSV fluorescent antibody diluent was added to each of the control sample and the test samples to resuspend the cells, and the samples were incubated at 4° C. for 2 h in the dark. • (5) Cleaning: After the incubation was completed, 500 μL of 0.1% BSA solution was added to each tube, the cells were harvested by centrifugation at 400 g for 5 min at 4° C. in the dark, and the supernatant was discarded. This operation was repeated three times. • (6) Resuspension of cells: 200 μL of 0.1% BSA solution was added to each sample, and the cells were carefully pipetted to prepare a cell suspension. • (7) Detection on flow cytometer: The […] of RSV F mutants to antibodies were measured using flow cytometry, with 1×10^4 cells detected in each measurement.
(§4) The RSV pre-F antibody (3C12) used in this example specifically binds to the RSV pre-F epitope Φ, and the RSV F antibody (11A9) binds to the pre-F and post-F epitopes II. Whether the pre-fusion conformations of the RSV F mutants are stable can be further determined by detecting the binding of the epitope Φ and the epitope II on the mutants to corresponding epitopes of antibodies 3C12 and 11A9, respectively, by flow cytometry.

[1] = test system: RSV pre-F antibody (3C12); test: Binding of epitope Φ of RSV F antigen mutants by flow cytometry; conditions: for RSV pre-F antibody (3C12) Epitope Φ (%): binding rate, flow cytometry, 293T cells 16 h after mRNA-LNP transfection; for Φ/II (%): ratio of epitope Φ (3C12) to epitope II (11A9) binding rate
Excerpt: as §1, §2, §3, §4

Molecule | RSV F antibody (11A9) Epitope II (%) (RSV F antibody (11A9)) | RSV pre-F antibody (3C12) Epitope Φ (%) [1] | Φ/II (%) [1]
YK-RSV-018 (protein) QNITEEFYCSTCSAVSKGYLGALRTGWYTSVITIELSNIKENKCNGTDAKVKLIKQELDKYKNAVTDLQLLMQSTPATGSGSAICSGVAVSKVLHLEGEVNKIKSALLSTNKAVVSLSNGVSVLTFKVLDLKNYIDKQLLPIVNKQSCSIPNIEIVIEFQQKNNRLLEITREFSVNAGVTTPVSTYMLTNSELLSLINDMPITNDQKKLMSNNVQIVRQQSYSIMSIIKEEVLAYVVQLPLYGVIDTPCWKLHTSPLCTTNTKEGSNICLTRTDRGWYCDNAGSVSFFPQAETCKVQSNRVFCDTMNSRTLPSEVNLCNVDIFNPKYDCKIMTSKTDVSSSVITSLGAIVSCYGKTKCTASNKNRGIIKTFSNGCDYVSNKGVDTVSVGNTLYCVNKQEGQSLYVKCEPIINFYDPLVFPSSEFDASISQVNEKINQSLAFIRKSDELLHNVNAGKSTTNIMITTIIIVIIVILLSLIAVGLLLY | 76.3% | 68.4% | 89.6%
YK-RSV-031 (protein) QNITEECYQSTCSAVSKGYLGALRTGWYTSVITIELSNIKENKCNGTDAKVKLIKQELDKYKNAVTDLQLLMQSTPATGSGSAIASGVAVSKVLHLEGEVNKIKSALLSTNKAVVSLSNGVSVLTFKVLDLKNYIDKQLLPILNKQSCSIPNIETVIEFQQKNNRLLEITREFSVNAGVTTPVSTYMLTNSELLSLINDMPITNDQKKLMSNNVQIVRQQSYSIMSIIKEEVLAYVVQLPLYGVIDTPCWKLHTSPLCTTNTKEGSNICLTRTDRGWYCDNAGSVSFFPQAETCKVQSNRVFCDTMNSRTLPSEVNLCNVDIFNPKYDCKIMTSKTDVSSSVITSLGAIVSCYGKTKCTASNKNRGIIKTFSNGCDYVSNKGVDTVSVGNTLYYVNKQEGQSLCVKGEPIINFYDPLVFPSDEFDASISQVNEKINQSLAFIRKSDELLHNVNAGKSTTNIMITTIIIVIIVILLSLIAVGLLLY | 83.4% | 75.5% | 90.5%
YK-RSV-041 (protein) QNITEEFYQSTCSAVCKGYLGALRTGWYTSVITIELSNIKENKCNGTDAKVKLIKQELDKYKNAVTDLQLLMQSTPATGSGSAIASGVAVSKVLHLEGEVNKIKSALLSTNKAVVSLSNGVSVLTFKVLDLKNYIDKQLLPILNKQSCSIPNIETVIEFQQKNNRLLEITREFSVNAGVTTPVSTYMLTNSELLSLINDMPITNDQKKLMSNNVQIVRQQSYSIMSIIKEEVLAYVVQLPLYGVIDTPCWKLHTCPLCTTNTKEGSNICLTRTDRGWYCDNAGSVSFFPQAETCKVQSNRVFCDTMNSRTLPSEVNLCNVDIFNPKYDCKIMTSKTDVSSSVITSLGAIVSCYGKTKCTASNKNRGIIKTFSNGCDYVSNKGVDTVSVGNTLYYVNKQEGQSLYVKGEPIINFYDPLVFPSDEFDASISQVNEKINQSLAFIRKSDELLHNVNAGKSTTNIMITTIIIVIIVILLSLIAVGLLLY | 81.5% | 73.7% | 90.4%
YK-RSV-042 (protein) QNITEEFYQSTCSAVSKGCLGALRTGWYTSVITIELSNIKENKCNGTDAKVKLIKQELDKYKNAVTDLQLLMQSTPATGSGSAIASGVAVSKVLHLEGEVNKIKSALLSTNKAVVSLSNGVSVLTFKVLDLKNYIDKQLLPILNKQSCSIPNIETVIEFQQKNNRLLEITREFSVNAGVTTPVSTYMLTNSELLSLINDMPITNDQKKLMSNNVQIVRQQSYSIMSIIKEEVLAYVVQLPLYGVIDTPCWKLHTCPLCTTNTKEGSNICLTRTDRGWYCDNAGSVSFFPQAETCKVQSNRVFCDTMNSRTLPSEVNLCNVDIFNPKYDCKIMTSKTDVSSSVITSLGAIVSCYGKTKCTASNKNRGIIKTFSNGCDYVSNKGVDTVSVGNTLYYVNKQEGQSLYVKGEPIINFYDPLVFPSDEFDASISQVNEKINQSLAFIRKSDELLHNVNAGKSTTNIMITTIIIVIIVILLSLIAVGLLLY | 61.1% | 49.8% | 81.5%
YK-RSV-053 (protein) QNITEEFYQSTCSAVSKGYLGALRTGWYTSVITIELSNIKENKCNGTDAKVKLIKQELDKYKNAVTDLQLLMQSTPATGSGSAICSGVAVSKVLHLEGEVNKIKSALLSTNKAVVSLSNGVSVLTFKVLDLKNYIDKQLLPILNKQSCSIPNIETVIEFQQKNNRLLEITREFSVNAGVTTPVSTYMLTNSELLSLINDMPITNDQKKLMSNNVQIVRQQSYSIMSIIKEEVLAYVVQLPLCGVIDTPCWKLHTSPLCTTNTKEGSNICLTRTDRGWYCDNAGSVSFFPQAETCKVQSNRVFCDTMNSRTLPSEVNLCNVDIFNPKYDCKIMTSKTDVSSSVITSLGAIVSCYGKTKCTASNKNRGIIKTFSNGCDYVSNKGVDTVSVGNTLYYVNKQEGQSLYVKGEPIINFYDPLVFPSDEFDASISQVNEKINQSLAFIRKSDELLHNVNAGKSTTNIMITTIIIVIIVILLSLIAVGLLLY | 67.0% | 40.0% | 59.7%
YK-RSV-033 (protein) QNITEEFYQSCCSAVSKGYLGALRTGWYTSVITIELSNIKENKCNGTDAKVKLIKQELDKYKNAVTDLQLLMQSTPATGSGSAIASGVAVSKVLHLEGEVNKIKSALLSTNKAVVSLSNGVSVLTFKVLDLKNYIDKQLLPILNKQSCSIPNIETVIEFQQKNNRLLEITREFSVNAGVTTPVSTYMLTNSELLSLINDMPITNDQKKLMSNNVQIVRQQSYSIMSIIKEEVLAYVVQLPLYGVIDTPCWKLHTSPLCTTNTKEGSNICLTRTDRGWYCDNAGSVSFFPQAETCKVQSNRVFCDTMNSRTLPSEVNLCNVDIFNPKYDCKIMTSKTDVSSSVITSLGAIVSCYGKTKCTASNKNRGIIKTFSNGCDYVSNKGVDTVSVGNTLYYVNKQEGQSLYVKCEPIINFYDPLVFPSDEFDASISQVNEKINQSLAFIRKSDELLHNVNAGKSTTNIMITTIIIVIIVILLSLIAVGLLLY | 82.4% | 72.0% | 87.4%
YK-RSV-022 (protein) QNITEEFYQSTCSAVSKGYLGALRTGWYTSVITIELSNIKENKCNGTDAKVKLIKQELDKYKNAVTDLQLLMQSTPACGSGSACASGVAVSKVLHLEGEVNKIKSALLSTNKAVVSLSGCGVSVLTFKVLDLKNYIDKQLLPIVNKQSCSIPNIETVIEFQQKNNRLLEITREFSVNAGVTTPVSTYMLTNSELLSLINDMPITNDQKKLMSNNVQIVRQQSYSIMSIIKEEVLAYVVQLPLYGVIDTPCWKLHTSPLCTTNTKEGSNICLTRTDRGWYCDNAGSVSFFPQAETCKVQSNRVFCDTMNSRTLPSEVNLCNVDIFNPKYDCKIMTSKTDVSSSVITSLGAIVSCYGKTKCTASNKCRGIIKTFSNGCDYVSNKGVDTVSVGNTLYYVNKQEGQSLYVKGEPIINFYDPLVFPSSEFDASISQVNEKINQSLAFIRKSDELLHNVNAGKSTTNIMITTIIIVIIVILLSLIAVGLLLY | 2.1% | 0.2% | 9.5%

— patent US12514920B1, “Respiratory syncytial virus mRNA vaccine, and preparation method therefor and use thereof” (Hangzhou Tianlong Pharmaceutical Co., Ltd., priority 2024, dated 2026)
